The chains are these.
B1: ER membrane protein complex subunit 6 (Homo sapiens), Q9BV81 (parent)
chain: MAAVVAKREGPPFISEAAVRGNAAVLDYCRTSVSALSGATAGILGLTGLYGFIFYLLASVLLSLLLILKAGRRWNKYFKSRRPLFTGGLIGGLFTYVLFWTFLYGMVHVY
partner: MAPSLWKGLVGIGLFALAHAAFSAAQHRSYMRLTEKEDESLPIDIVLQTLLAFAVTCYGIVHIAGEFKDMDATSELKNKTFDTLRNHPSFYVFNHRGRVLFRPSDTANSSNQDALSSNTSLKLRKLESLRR
B2: ER membrane protein complex subunit 2 (Homo sapiens), Q15006 (parent)
chain: MAKVSELYDVTWEEMRDKMRKWREENSRNSEQIVEVGEELINEYASKLGDDIWIIYEQVMIAALDYGRDDLALFCLQELRRQFPGSHRVKRLTGMRFEAMERYDDAIQLYDRILQEDPTNTAARKRKIAIRKAQGKNVEAIRELNEYLEQFVGDQEAWHELAELYINEHDYAKAAFCLEELMMTNPHNHLYCQQYAEVKYTQGGLENLELSRKYFAQALKLNNRNMRALFGLYMSASHIASNPKASAKTKKDNMKYASWAASQINRAYQFAGRSKKETKYSLKAVEDMLETLQITQS
partner: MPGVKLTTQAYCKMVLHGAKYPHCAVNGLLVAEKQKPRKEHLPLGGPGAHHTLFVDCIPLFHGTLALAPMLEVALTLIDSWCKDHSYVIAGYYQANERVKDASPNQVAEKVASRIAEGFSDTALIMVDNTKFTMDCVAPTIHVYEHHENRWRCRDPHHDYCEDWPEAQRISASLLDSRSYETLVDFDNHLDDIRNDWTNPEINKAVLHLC
B3: ER membrane protein complex subunit 2 (Homo sapiens), Q15006 (parent)
chain: B2 chain
partner: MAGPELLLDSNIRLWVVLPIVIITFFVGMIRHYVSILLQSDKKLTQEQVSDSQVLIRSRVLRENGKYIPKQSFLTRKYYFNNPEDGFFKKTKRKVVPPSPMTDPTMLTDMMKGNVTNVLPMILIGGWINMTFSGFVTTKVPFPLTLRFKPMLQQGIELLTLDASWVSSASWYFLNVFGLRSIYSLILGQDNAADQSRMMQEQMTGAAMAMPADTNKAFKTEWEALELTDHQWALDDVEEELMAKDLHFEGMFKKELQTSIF

Data on eleven variants can be found in IntAct's records for PubMed 32439656.

One test covers variants of B1. To be noted: with emc5_human MMGT1, Q8N4V1.
With MAAVVAKREGPPFISEAAVRGNAAVLDYCRTSVSALSGATAGILYLTALYGFIFYLLASVLLSLLLILKAGRRWNKYFKSRRPLFTGGLIGGLFTYVLFWTFLYGMVHVY, the “effect of a mutation on the interaction” value is on record as “with no effect”.
As for MAAVVAKREGPPFISEAAVRGNAAVLDYCRTSKSAKSGATAGILGLTGLYGFIFYLLASVLLSLLLILKAGRRWNKYFKSRRPLFTGGLIGGLFTYVLFWTFLYGMVHVY, the “effect of a mutation on the interaction” value is “with no effect”.

Variants of B2 are the subject of a further test. As to conditions: with emc8_human EMC8, O43402.
MAKVSELYDVTWEEMRDKMRKWREENSRNSEQIVEVGEELINEYASKLGDDIWIIYEQVMIAALDYGRDDLALFCLQELRRQFPGSHRVKRLTGMRFEAMERYDDAIQLYDRILQEDPTNTAARKRKIAIRKAQGKNVEAIRELNEYLEQFVGDQEAWHELAELYINEHDAAKAAFCLEELMMTNPHNHLYCQQYAEVKYTQGGLENLELSRKYFAQALKLNNRNMRALFGLYMSASHIASNPKASAKTKKDNMKYASWAASQINRAYQFAGRSKKETKYSLKAVEDMLETLQITQS [Y171A]: the “effect of a mutation on the interaction” value is recorded as “with no effect”.
The same measure, in the same setting: as for MAKVSELYDVTWEEMRDKMRKWREENSRNSEQIVEVGEELINEYASKLGDDIWIIYEQVMIAALDYGRDDLALFCLQELRRQFPGSHRVKRLTGMRFEAMERYDDAIQLYDRILQEDPTNTAARKRKIAIRKAQGKNVEAIRELNEYLEQFVGDQEAWHELAELYINEHDYAKAAFCLEALMMTNPHNHLYCQQYAEVKYTQGGLENLELSRKYFAQALKLNNRNMRALFGLYMSASHIASNPKASAKTKKDNMKYASWAASQINRAYQFAGRSKKETKYSLKAVEDMLETLQITQS [E180A], the entry is “with no effect”.
Still for that read-out and setting: in the case of MAKVSELYDVTWEEMRDKMRKWREENSRNSEQIVEVGEELINEYASKLGDDIWIIYEQVMIAALDYGRDDLALFCLQELRRQFPGSHRVKRLTGMRFEAMERYDDAIQLYDRILQEDPTNTAARKRKIAIRKAQGKNVEAIRELNEYLEQFVGDQEAWHELAELYINEHDYAKAAFCLEELMMTNPHNHLYCQQYAEVKYTQGGLENLELSRKYFAQALKLNNRNMAALFGLYMSASHIASNPKASAKTKKDNMKYASWAASQINRAYQFAGRSKKETKYSLKAVEDMLETLQITQS [R227A] it was “disrupting interaction strength”; in that of MAKVSELYDVTWEEMRDKMRKWREENSRNSEQIVEVGEELINEYASKLGDDIWIIYEQVMIAALDYGRDDLALFCLQELRRQFPGSHRVKRLTGMRFEAMERYDDAIQLYDRILQEDPTNTAARKRKIAIRKAQGKNVEAIRELNEYLEQFVGDQAAWHELAELYINEHDYAKAAFCLEELMMTNPHNHLYCQQYAEVKYTQGGLENLELSRKYFAQALKLNNRNMRALFGLYMSASHIASNPKASAKTKKDNMKYASWAASQINRAYQFAGRSKKETKYSLKAVEDMLETLQITQS [E156A], “with no effect”.
The same measure, in the same setting: in the case of MAKVSELYDVTWEEMRDKMRKWREENSRNSEQIVEVGEELINEYASKLGDDIWIIYEQVMIAALDYGRDDLALFCLQELRRQFPGSHRVKRLTGMRFEAMERYDDAIQLYDRILQEDPTNTAARKRKIAIRKAQGKNVEAIRELNEYLEQFVGDQEAWHELAELYINEHDYAKAAFCLEELMMTNPHNHLYCQQYAEVKATQGGLENLELSRKYFAQALKLNNRNMRALFGLYMSASHIASNPKASAKTKKDNMKYASWAASQINRAYQFAGRSKKETKYSLKAVEDMLETLQITQS [Y200A] it was “disrupting interaction strength”; in that of MAKVSELYDVTWEEMRDKMRKWREENSRNSEQIVEVGEELINEYASKLGDDIWIIYEQVMIAALDYGRDDLALFCLQELRRQFPGSHRVKRLTGMRFEAMERYDDAIQLYDRILQEDPTNTAARKRKIAIRKAQGKNVEAIRELNEYLEQFVGDQEAWHALAELYINEHDYAKAAFCLEELMMTNPHNHLYCQQYAEVKYTQGGLENLELSRKYFAQALKLNNRNMRALFGLYMSASHIASNPKASAKTKKDNMKYASWAASQINRAYQFAGRSKKETKYSLKAVEDMLETLQITQS [E160A], “with no effect”; in that of MAKVSELYDVTWEEMRDKMRKWREENSRNSEQIVEVGEELINEYASKLGDDIWIIYEQVMIAALDYGRDDLALFCLQELRRQFPGSHRVKRLTGMRFEAMERYDDAIQLYDRILQEDPTNTAARKRKIAIRKAQGKNVEAIRELNEYLEQFVGDQEAWHELAELYINEHDYAKAAFCLEELMMTNPHNHLYCQQYAEVKYTQGGLENLELSRKYFAQALKLNNRNMRALFGLYMSASHIASNPKASAKTKKDNMKYASAAASQINRAYQFAGRSKKETKYSLKAVEDMLETLQITQS [W259A], “with no effect”.
Regarding MAKVSELYDVTWEEMRDKMRKWREENSANSEQIVEVGEELINEYASKLGDDIWIIYEQVMIAALDYGRDDLALFCLQELRRQFPGSHRVKRLTGMRFEAMERYDDAIQLYDRILQEDPTNTAARKRKIAIRKAQGKNVEAIRELNEYLEQFVGDQEAWHELAELYINEHDYAKAAFCLEELMMTNPHNHLYCQQYAEVKYTQGGLENLELSRKYFAQALKLNNRNMRALFGLYMSASHIASNPKASAKTKKDNMKYASWAASQINRAYQFAGRSKKETKYSLKAVEDMLETLQITQS [R28A], the “effect of a mutation on the interaction” value was “with no effect”.

A further test covers variants of B3. To be noted: with emc3_human EMC3, Q9P0I2.
Consider MAKVSELYDVTWEEMRDKMRKWREENSANSEQIVEVGEELINEYASKLGDDIWIIYEQVMIAALDYGRDDLALFCLQELRRQFPGSHRVKRLTGMRFEAMERYDDAIQLYDRILQEDPTNTAARKRKIAIRKAQGKNVEAIRELNEYLEQFVGDQEAWHELAELYINEHDYAKAAFCLEELMMTNPHNHLYCQQYAEVKYTQGGLENLELSRKYFAQALKLNNRNMRALFGLYMSASHIASNPKASAKTKKDNMKYASWAASQINRAYQFAGRSKKETKYSLKAVEDMLETLQITQS [R28A], for which the “effect of a mutation on the interaction” value is on record as “with no effect”.
